Ends that are not written are not given here.
B1: SEQ ID NO: 5 (ligand)
chain: FVDQHLCGSHLVEALYLVCGERGFFYTPKTYDGKGIVEQCCTSICSLYQLENYCG
modifications: ends and bridges not checked; cysteine pairing not given here
notes: Single chain insulin analog (B chain-C'-A chain)
B2: SEQ ID NO: 7 (ligand)
chain: FVGQHLCGSHLVEALYLVCGERGFFYTPKTYDGKGIVEQCCTSICSLYQLENYCG
modifications: ends and bridges not checked; cysteine pairing not given here
notes: as for B1

Target: insulin receptor (IR) (UniProt P06213 28-1382)
Test: method not stated; in the absence of glucose

Row | Binder | Kd [nM]
1 | B1 | 4.51
2 | B2 | 1.21

Reference: US20240343773A1 (AMIDEBIO, published 2024)
